Data as given in patent US20110165265A1, “TRAIL VARIANTS FOR TREATING CANCER” (FUNDACIÓ GENÒMICA (CRG), priority 2007, published 2011).
“Also recorded” adds a separate entry of the source.

T1: DcR2 (Homo sapiens, UniProt Q9UBN6)
T1 construct: soluble, recombinant DcR1-Ig (sDcR1) and DcR2-Ig (sDcR2); purchased R&D Systems
T1 sequence (Q9UBN6 56-211 limits assumed): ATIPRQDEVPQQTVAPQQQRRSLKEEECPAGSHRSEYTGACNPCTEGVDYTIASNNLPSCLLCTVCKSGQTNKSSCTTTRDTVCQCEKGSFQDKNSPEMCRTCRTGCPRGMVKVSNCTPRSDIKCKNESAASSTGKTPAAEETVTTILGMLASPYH

T2: DcR1 (Homo sapiens, UniProt O14798)
T2 construct: soluble, recombinant DcR1-Ig (sDcR1) and DcR2-Ig (sDcR2); purchased R&D Systems
T2 sequence (O14798 26-236 limits assumed): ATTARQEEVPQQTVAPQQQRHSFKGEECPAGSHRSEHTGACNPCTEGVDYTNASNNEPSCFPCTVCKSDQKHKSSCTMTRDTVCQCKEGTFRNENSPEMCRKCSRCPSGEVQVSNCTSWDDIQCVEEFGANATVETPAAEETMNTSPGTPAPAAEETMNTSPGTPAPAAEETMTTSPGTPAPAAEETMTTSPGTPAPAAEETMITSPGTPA

B1: wtTRAIL: wild-type soluble recombinant human TRAIL, amino acids 114-281 (SEQ ID NO: 3) (protein, listed as Homo sapiens)
chain: MVRRGRVAAHTGTRGRSNTSSNSKNKAGRKNSWSSRSGHSSNHRNGVHKGYYYSTYRKNTKNDKMVYYKYTSYDMKSARNSCWSKDAYGYSYGGKNDRVSVTNHDMDHASGAVG
modifications: TRAIL 114-281
B2: D269HE195R: rhTRAIL (114-281) carrying mutations D269H and E195R; DR5-selective TRAIL variant (protein)
chain: MVRERGPQRVAAHITGTRGRSNTLSSPNSKNEKALGRKINSWESSRSGHSFLSNLHLRNGELVIHEKGFYYIYSQTYFRFQERIKENTKNDKQMVQYIYKYTSYPDPILLMKSARNSCWSKDAEYGLYSIYQGGIFELKENDRIFVSVTNEHLIDMHHEASFFGAFLVG

Assays:
DR5 [1] = biological target: T3, DR5 (Homo sapiens, UniProt O14763); conditions: surface plasmon resonance; read-out: binding affinity Kd for DR5; cited from earlier work
T3 construct: Effect of soluble recombinant DR5-Ig (sDR5) on apoptosis induction

Colo205 tumors = Colo205 tumors in athymic nude mice; assay type: in vivo; conditions: 1 and 5 mg/kg IP
[2] = acknowledged value; cited from earlier work
SiHa cells = test: Cell survival / sensitivity of SiHa; assay type: cell-based
Source text: (A) Effect of increasing concentration of Bortezomib on cell survival. […] (C) 10Gy Radiotherapy had no effect in further decreasing cell viability of SIHA cells in both TRAIL and DR5 mutant treated cells.

BJAB cells = test: Cytotoxicity in BJAB cells; assay type: cell-based
Colo205 cells = test: Annexin V apoptosis assay in Colo205; assay type: cell-based, human; conditions: Colo205, 3 h
Experimental: Colo205 cells express all four TRAIL receptors, and are sensitive to TRAIL-induced apoptosis, which is mediated predominantly via DRS in these cells^10. […] Induction of cell death was measured by Annexin V assay, wherein externalization of phosphatidyl serine (PS) on the plasma membrane of apoptotic cells was detected using Annexin V-FITC (IQ Corporation, Groningen, The Netherlands). Briefly, cells were trypsinized and were then collected by centrifugation at 400 g, washed in ice-cold calcium buffer (10 mM HEPES/NaOH, pH 7.4, 140 mM NaCl, 2.5 mM CaCl2) and incubated with Annexin V-FITC for 15 min in the dark prior to acquisition on a FACSCalibur flow cytometer (Becton Dickinson).

DcR2 = biological target: T1, DcR2; test: SPR receptor binding assay, immobilized DcR2-Ig; conditions: 0.1-250 nM ligand
Experimental: (§1) The response data (in response units) as a function of TRAIL concentration were fitted using a four parameter equation to give an apparent pre-steady state affinity constant.
(§2) Binding experiments were performed at 37° C. using a surface plasmon resonance-based biosensor (Biacore 3000, Biacore AB, Uppsala, Sweden) as previously described^10. In short, DcR1-Ig and DcR2-Ig receptor chimeras (R&D Systems) were captured at a 35 μl/min flow rate using a protein A (Sigma) modified CM5 sensor chip (Biacore). Receptor chimeras were captured at a level of ˜500-800 response units (RU). […] Binding of ligands to the receptors was monitored in real-time. Between injections the protein A sensor surface was regenerated using a 30s pulse of 0.1 M glycine 0.5 M NaCl pH 3. Due to the very slow dissociation of the TRAIL-receptor complex, only pre-steady state binding data could be obtained. In order to obtain data that represent proper high-affinity complex formation, the response at each concentration was recorded 30 sec after the end of the injection. The response data (in response units) as a function of TRAIL concentration were fitted using a four parameter equation to give an apparent pre-steady state affinity constant.
(§3) Affinity of the ligands was assessed by measuring receptor binding in a concentration range of 0.1-250 nM.

A2780 cells [3] = test: MTT cytotoxicity in A2780 (Example 6); assay type: cell-based; conditions: A2780 (FIG. 8E)
DR4 = biological target: T4, DR4 (Homo sapiens, UniProt O00220); test: SPR binding to immobilized DR4-Ig; conditions: pre-steady state SPR
T4 construct: the more commonly used dimeric TRAIL-receptor-IgG Fc chimeric constructs
Source text: In other experiments dissociation was continued for periods of up to 2,000 sec, with similar results. As a consequence it is essentially impossible to obtain a dissociation rate constant and thus to calculate the affinity from the association and dissociation rate constants. We therefore chose to use the pre-steady state approach to analyse the data^10. […] With these two changes this variant has become an TRAIL variant that binds to DR5 with high selectivity and affinity.

DcR1 = biological target: T2, DcR1; test: SPR receptor binding assay, immobilized DcR1-Ig; conditions: 0.1-250 nM ligand
Experimental: as §1, §2, §3

A2780 cells [4] = test: Sensitivity of ovarian carcinoma cell line A2780 (Example 4); assay type: cell-based, human
Source text: The ovarian carcinoma cell line A2780 expresses very low levels of DR4, and high levels of the other three membrane-bound TRAIL receptors. Sensitivity of these cells to wild type TRAIL and the DR5-specific variant was compared initially as a single agent. The sensitivity pattern is illustrated in the Table 6, with + indicating minimally sensitive, ++ moderately sensitive and +++ very sensitive.

VACO-235 and VACO330 = test: Sensitivity of colon adenoma cell lines; assay type: cell-based, human; conditions: 96 hours
Experimental: The colon adenoma cell lines VACO-235 and VACO330 were treated with TRAIL or D269H/E195R for 96 hours. […] Sensitivity could be further enhanced using TRAIL or D269H/E195R in combination with the cdk inhibitor roscovitine.

DR5 [5] = biological target: T3, DR5; test: SPR binding to immobilized DR5-Ig

T4 sequence (O00220 24-239 limits assumed): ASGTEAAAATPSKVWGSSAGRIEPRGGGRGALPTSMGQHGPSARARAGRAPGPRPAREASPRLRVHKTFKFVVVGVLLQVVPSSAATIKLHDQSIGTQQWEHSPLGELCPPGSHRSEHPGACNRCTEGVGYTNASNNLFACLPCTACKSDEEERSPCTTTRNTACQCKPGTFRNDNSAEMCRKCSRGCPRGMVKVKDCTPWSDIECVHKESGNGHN

| Molecule | Kd (DR5 [1]) [nM] | anti-tumor effect, single therapy (Colo205 tumors) | half life [2] | effect of combination with bortezomib (SiHa cells) | sensitivity, single agent (SiHa cells) | cell death induction (BJAB cells; BJABDR5 DEF cells) | cytotoxic potential (BJAB cells; BJABDR5 DEF+DR5 cells) | cell death induction (BJAB cells; BJABwt cells) | increase in apoptosis / cytotoxic potential compared to wtTRAIL (based on IC50) (Colo205 cells) | increase in apoptosis / cytotoxic potential compared to wtTRAIL (based on IC50) (Colo205 cells; listed as D269H/E195R) | binding toward DcR2 compared to wtTRAIL (DcR2) | cytotoxic activity compared with wild-type TRAIL (A2780 cells [3]) | affinity for DR4-Ig compared to wtTRAIL (DR4) | binding towards DcR1, reduction compared to wtTRAIL (DcR1) | efficacy in combination with Cisplatin (A2780 cells [4]) | sensitivity compared to wild type TRAIL, single agent (A2780 cells [4]) | sensitivity of adenoma cell lines (VACO-235 and VACO330) | increase in association rate constant (kon) for binding to DR5 compared to wtTRAIL (DR5 [5]) | affinity for DR5-Ig compared to wtTRAIL (DR5 [5]; pre-steady state SPR) |
| --- | --- | --- | --- | --- | --- | --- | --- | --- | --- | --- | --- | --- | --- | --- | --- | --- | --- | --- | --- |
| B1 | 7.2 | neither of the two concentrations of wtTRAIL give an anti-humor effect; also recorded: do not give an anti-tumor effect | approximately 30 minutes | increased tumor cell death | resistant | – | – | – | – | – | – | – | – | – | – | – | – | – | – |
| B2 | – | – | – | increased tumor cell death | resistant | unable to induce significant cell death | restored | able to induce cell death | 2.7-4.2 fold | 3.3-4.2 fold | reduced | significantly increased | almost abolished | approximately 20 fold | higher efficacy than wtTRAIL | increased sensitivity | more sensitive to D269H/E195R | less than 5 fold | increased several fold |
